Measured values: patent publication US20250262210A1 (TRUSTEES OF COLUMBIA UNIVERSITY IN THE CITY OF NEW YORK, published 2025)

Assays:
Test in all cases: IP/MS, LZTR1 R810W-FLAG, U87
TRIM16 = TRIM16 (human, UniProt O95361 1-564, limits assumed)
Summary of the method: (§1)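 Read-out: spectral counts from LC-MS/MS (Orbitrap Fusion) after MaxQuant identification. Variable modifications were Met oxidation, protein N-terminal acetylation and N/Q deamidation.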

FHOD1 = biological target: T1, FHOD1 (human, UniProt Q9Y613 2-1164)
T1 sequence (looked up): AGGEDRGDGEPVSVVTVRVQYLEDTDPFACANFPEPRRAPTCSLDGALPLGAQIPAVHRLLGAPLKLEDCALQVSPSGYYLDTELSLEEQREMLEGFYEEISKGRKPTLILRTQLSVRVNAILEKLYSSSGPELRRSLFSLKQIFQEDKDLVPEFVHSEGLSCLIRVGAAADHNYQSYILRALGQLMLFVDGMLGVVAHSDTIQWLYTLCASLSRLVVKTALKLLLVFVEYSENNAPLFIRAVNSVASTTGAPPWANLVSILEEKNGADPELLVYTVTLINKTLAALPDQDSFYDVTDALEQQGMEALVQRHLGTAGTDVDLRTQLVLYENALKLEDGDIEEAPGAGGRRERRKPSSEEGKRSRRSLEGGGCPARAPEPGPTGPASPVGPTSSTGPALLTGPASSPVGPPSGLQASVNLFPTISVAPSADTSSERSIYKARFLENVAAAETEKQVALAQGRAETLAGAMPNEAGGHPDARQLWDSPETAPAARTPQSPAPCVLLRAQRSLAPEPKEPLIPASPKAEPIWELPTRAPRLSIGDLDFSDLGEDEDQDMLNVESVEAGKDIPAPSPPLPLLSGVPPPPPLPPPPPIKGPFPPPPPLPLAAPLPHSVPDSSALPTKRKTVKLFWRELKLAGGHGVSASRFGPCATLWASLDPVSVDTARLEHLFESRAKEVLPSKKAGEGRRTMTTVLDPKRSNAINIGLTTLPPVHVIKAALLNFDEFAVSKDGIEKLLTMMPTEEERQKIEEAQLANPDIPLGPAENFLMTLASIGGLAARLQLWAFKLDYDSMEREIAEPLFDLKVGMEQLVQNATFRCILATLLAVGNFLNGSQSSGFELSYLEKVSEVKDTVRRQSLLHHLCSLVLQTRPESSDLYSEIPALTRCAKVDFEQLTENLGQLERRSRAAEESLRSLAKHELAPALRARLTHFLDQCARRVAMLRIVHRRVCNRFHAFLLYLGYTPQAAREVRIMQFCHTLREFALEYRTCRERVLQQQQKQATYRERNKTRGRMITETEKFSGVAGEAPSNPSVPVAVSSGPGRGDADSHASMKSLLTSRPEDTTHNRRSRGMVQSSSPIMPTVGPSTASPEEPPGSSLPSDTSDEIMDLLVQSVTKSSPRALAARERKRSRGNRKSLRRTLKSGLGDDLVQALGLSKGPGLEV
Summary of the method: as §1

PARP14 = PARP14 (human, UniProt Q460N5 1-1801, limits assumed)
Summary of the method: as §1

SEC24D = biological target: T2, SEC24D (human, UniProt O94855 1-1032, limits assumed)
T2 sequence (looked up): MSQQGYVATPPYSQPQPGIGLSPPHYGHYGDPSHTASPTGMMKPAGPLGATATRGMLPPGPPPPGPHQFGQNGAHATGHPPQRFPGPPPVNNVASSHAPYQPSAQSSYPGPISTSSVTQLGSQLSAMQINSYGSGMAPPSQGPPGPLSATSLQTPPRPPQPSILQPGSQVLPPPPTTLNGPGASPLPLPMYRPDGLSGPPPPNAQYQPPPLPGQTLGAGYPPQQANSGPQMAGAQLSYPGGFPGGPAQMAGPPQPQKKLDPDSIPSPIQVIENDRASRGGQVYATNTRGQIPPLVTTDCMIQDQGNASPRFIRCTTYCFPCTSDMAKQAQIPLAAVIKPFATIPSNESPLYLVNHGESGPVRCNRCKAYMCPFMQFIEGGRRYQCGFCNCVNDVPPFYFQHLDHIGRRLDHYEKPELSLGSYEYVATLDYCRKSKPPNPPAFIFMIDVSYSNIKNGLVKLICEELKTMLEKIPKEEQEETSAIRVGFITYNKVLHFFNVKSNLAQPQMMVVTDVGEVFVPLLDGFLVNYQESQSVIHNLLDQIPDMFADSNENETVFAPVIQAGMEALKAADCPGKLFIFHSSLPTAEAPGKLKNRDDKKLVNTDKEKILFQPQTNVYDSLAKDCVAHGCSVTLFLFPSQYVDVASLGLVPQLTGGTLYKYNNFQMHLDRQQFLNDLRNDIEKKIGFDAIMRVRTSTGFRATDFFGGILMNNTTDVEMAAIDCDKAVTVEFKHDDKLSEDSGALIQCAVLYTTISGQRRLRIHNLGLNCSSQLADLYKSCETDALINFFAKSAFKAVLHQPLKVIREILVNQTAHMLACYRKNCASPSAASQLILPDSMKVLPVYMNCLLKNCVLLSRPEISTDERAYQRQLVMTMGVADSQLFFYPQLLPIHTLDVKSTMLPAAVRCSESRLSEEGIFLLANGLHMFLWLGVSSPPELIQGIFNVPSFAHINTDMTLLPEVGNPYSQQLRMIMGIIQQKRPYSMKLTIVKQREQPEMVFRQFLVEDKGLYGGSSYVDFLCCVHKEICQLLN
Summary of the method: as §1

Measured: binding result

Sequence of PARP14 (Q460N5 whole entry): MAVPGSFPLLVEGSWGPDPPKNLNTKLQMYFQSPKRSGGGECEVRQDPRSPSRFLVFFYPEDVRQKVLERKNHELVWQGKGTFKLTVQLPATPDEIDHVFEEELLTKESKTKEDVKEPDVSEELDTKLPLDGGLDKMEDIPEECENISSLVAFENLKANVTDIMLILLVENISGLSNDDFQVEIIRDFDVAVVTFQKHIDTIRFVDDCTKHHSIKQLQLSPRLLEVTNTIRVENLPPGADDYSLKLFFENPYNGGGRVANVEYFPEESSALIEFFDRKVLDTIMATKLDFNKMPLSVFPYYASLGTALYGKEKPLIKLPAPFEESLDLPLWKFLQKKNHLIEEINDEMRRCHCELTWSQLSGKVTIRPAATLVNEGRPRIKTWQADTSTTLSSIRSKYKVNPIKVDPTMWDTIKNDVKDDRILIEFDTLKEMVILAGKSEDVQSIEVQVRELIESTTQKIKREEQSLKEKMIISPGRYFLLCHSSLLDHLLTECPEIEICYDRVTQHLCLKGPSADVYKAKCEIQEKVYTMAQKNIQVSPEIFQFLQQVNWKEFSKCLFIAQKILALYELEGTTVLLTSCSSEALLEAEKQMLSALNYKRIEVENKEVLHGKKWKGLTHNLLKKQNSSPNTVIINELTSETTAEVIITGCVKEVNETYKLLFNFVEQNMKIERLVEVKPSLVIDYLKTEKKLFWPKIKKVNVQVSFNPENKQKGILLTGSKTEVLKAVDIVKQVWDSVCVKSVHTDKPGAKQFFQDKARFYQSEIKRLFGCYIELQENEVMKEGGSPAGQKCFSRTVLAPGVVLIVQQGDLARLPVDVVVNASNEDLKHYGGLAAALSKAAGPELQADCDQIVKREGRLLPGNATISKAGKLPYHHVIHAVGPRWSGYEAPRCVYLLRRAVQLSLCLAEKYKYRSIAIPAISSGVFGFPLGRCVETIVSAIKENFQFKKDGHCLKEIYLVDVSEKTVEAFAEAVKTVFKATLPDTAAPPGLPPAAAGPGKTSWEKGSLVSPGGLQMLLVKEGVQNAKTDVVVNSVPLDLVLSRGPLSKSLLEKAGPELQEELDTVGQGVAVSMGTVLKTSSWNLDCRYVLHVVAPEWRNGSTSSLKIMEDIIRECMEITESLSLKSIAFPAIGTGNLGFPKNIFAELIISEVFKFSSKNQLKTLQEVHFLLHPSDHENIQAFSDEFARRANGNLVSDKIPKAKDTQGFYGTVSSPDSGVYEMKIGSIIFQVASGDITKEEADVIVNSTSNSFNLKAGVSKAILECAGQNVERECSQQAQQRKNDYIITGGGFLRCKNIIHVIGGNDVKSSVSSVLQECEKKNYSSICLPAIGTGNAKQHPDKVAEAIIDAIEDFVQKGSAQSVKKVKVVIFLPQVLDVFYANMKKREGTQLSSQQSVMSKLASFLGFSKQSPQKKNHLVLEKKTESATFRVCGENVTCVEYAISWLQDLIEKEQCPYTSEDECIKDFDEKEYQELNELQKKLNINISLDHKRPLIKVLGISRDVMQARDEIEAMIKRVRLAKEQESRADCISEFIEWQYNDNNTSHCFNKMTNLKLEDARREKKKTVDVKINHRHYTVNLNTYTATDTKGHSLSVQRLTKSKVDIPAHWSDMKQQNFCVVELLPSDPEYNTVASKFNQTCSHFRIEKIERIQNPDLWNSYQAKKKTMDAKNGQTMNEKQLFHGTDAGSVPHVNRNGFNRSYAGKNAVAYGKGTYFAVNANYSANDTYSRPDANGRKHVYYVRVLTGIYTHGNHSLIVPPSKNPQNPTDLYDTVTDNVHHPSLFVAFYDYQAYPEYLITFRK

B1: LZTR1 R810W-FLAG (other, human, UniProt Q8N653 1-840, looked up)
chain: MAGPGSTGGQIGAAALAGGARSKVAPSVDFDHSCSDSVEYLTLNFGPFETVHRWRRLPPCDEFVGARRSKHTVVAYKDAIYVFGGDNGKTMLNDLLRFDVKDCSWCRAFTTGTPPAPRYHHSAVVYGSSMFVFGGYTGDIYSNSNLKNKNDLFEYKFATGQWTEWKIEGRLPVARSAHGATVYSDKLWIFAGYDGNARLNDMWTIGLQDRELTCWEEVAQSGEIPPSCCNFPVAVCRDKMFVFSGQSGAKITNNLFQFEFKDKTWTRIPTEHLLRGSPPPPQRRYGHTMVAFDRHLYVFGGAADNTLPNELHCYDVDFQTWEVVQPSSDSEVGGAEVPERACASEEVPTLTYEERVGFKKSRDVFGLDFGTTSAKQPTQPASELPSGRLFHAAAVISDAMYIFGGTVDNNIRSGEMYRFQFSCYPKCTLHEDYGRLWESRQFCDVEFVLGEKEECVQGHVAIVTARSRWLRRKITQARERLAQKLEQEAAPVPREAPGVAAGGARPPLLHVAIREAEARPFEVLMQFLYTDKIKYPRKGHVEDVLLIMDVYKLALSFQLCRLEQLCRQYIEASVDLQNVLVVCESAARLQLSQLKEHCLNFVVKESHFNQVIMMKEFERLSSPLIVEIVRRKQQPPPRTPLDQPVDIGTSLIQDMKAYLEGAGAEFCDITLLLDGHPRPAHKAILAARSSYFEAMFRSFMPEDGQVNISIGEMVPSRQAFESMLRYIYYGEVNMPPEDSLYLFAAPYYYGFYNNRLQAYCKQNLEMNVTVQNVLQILEAADKTQALDMKRHCLHIIVHQFTKVSKLPTLWSLSQQLLLDIIDSLASHISDKQCAELGADI
notes: Stably expressed in U87 cells by lentivirus; also called LZTR1-FLAG-R810W; LZTR1 RW; not shown: FLAG tag
binds: all assays above
